1 molecule from US20030087394, “Insulin related transcription factor and uses thereof” (published 2003) can be followed below.

The data set deals with RIPE3b1 47-kDa protein (mMafA), affinity purified and SDS-PAGE eluted (UniProt A0A1U7RCQ9 A0A1U7RCQ9:1-361). As to the kind of experiment: pulldown; streptavidin agarose affinity purification. The settings on record: tags: from HIT T-15 nuclear extract; label: 5' biotin top strand. The protocol:
This HP fraction contained about 85% of the recovered RIPE3b 1 factor with a 2.5-fold purification. The RIPE3b binding factor was then affinity purified from the HP fraction using a 5′ biotinylated RIPE3b oligonucleotide and streptavidin agarose. The purified fractions were analyzed for binding to a rat insulin II-139 to -101 bp probe by EMSA [FIG. 3, (24)]. The −139 to −101 bp probe contains the RIPE3b and overlapping A2 elements. Five distinct factors (RIPE3b1, RIPE3b2 and three A2 specific complexes) can bind the −139 to −101 bp probe. Thus the −139 to −101 bp probe serves as a good indicator of the purification process. The RIPE3b1 binding activity was eluted in two fractions and was the predominant DNA binding activity in these fractions. RIPE3b1 binding activity was purified 95-fold as compared to the HP fraction […]. The purified fraction was next analyzed on a 10% SDS-PAGE gel along with the starting HIT T-15 nuclear extract and HP fraction. […] The regions corresponding to the individual protein bands were cut; the proteins were then eluted and analyzed for the RIPE3b1 binding activity. […]

RIPE3b1 47-kDa protein (mMafA), affinity purified and SDS-PAGE eluted, sequence (A0A1U7RCQ9 entry or part of it): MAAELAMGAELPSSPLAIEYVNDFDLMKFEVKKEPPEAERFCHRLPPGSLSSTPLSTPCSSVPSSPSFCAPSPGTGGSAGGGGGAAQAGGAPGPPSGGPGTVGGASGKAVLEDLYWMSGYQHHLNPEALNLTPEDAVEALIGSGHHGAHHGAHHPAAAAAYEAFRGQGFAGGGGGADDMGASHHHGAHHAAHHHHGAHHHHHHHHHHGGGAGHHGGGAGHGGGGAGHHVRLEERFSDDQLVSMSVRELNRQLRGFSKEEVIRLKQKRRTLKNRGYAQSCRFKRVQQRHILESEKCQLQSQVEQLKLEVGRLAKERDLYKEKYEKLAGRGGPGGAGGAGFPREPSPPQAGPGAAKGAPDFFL

B1: biotinylated RIPE3b (-126 to -101) dimer (dsDNA)
DNA 1: TGACTGGAAACTGCAGCTTCAGCCCCTCTGGAAACTGCAGCTTCAGCCCCAC
DNA 2: GTGGGGCTGAAGCTGCAGTTTCCAGAGGGGCTGAAGCTGCAGTTTCCAGTCA
In the case of B1, the binding result is on record as “binds”.
